Assays:
SHP2-C SH2 = experiment: SH2 binding enrichment of the phosphorylated peptide, bacterial display (enrichment ratio); higher = better substrate or ligand; peptides without Tyr show the background
Grb2 SH2 = Grb2 SH2 (UniProt P62993); experiment: as above
c-Src SH2 = experiment: as above
FGFR3 = FGFR3 (UniProt P22607); experiment: phosphorylation enrichment, bacterial display (enrichment ratio); higher = better substrate or ligand; peptides without Tyr show the background
c-Abl (mouse) = experiment: as above
c-Src = experiment: as above
AncSZ = experiment: as above
Fyn = Fyn (UniProt P06241); experiment: as above
Fyn, sequence (P06241 whole entry, looked up): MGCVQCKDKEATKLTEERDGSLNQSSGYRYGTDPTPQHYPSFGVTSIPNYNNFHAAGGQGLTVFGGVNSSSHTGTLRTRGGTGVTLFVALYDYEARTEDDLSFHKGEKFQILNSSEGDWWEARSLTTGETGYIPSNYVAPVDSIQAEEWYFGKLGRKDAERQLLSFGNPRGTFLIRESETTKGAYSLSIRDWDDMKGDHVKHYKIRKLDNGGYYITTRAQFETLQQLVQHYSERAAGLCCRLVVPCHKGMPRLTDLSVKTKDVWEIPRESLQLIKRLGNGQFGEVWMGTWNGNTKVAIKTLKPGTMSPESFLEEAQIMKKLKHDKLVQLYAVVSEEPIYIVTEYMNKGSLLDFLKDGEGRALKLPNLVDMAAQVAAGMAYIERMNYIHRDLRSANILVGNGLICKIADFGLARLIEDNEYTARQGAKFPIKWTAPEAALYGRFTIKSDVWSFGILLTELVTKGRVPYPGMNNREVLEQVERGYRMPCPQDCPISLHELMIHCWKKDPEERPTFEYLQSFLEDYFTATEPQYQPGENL

Hck = Hck (UniProt P08631); experiment: as above
Hck, sequence (P08631 whole entry, looked up): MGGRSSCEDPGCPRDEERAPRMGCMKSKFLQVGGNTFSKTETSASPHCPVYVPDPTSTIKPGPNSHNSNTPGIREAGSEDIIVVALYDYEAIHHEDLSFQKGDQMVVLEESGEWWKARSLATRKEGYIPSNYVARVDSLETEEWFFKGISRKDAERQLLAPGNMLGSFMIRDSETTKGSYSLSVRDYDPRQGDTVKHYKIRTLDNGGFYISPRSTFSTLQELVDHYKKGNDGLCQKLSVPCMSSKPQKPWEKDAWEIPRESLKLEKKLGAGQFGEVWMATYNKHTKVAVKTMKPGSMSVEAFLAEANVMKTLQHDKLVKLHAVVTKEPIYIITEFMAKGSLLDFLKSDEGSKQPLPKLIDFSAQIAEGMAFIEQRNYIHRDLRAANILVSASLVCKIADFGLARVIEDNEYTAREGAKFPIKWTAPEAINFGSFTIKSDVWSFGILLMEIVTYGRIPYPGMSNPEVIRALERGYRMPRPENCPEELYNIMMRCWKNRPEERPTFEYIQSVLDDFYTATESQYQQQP

EPHB2 = EPHB2 (UniProt P29323); experiment: as above
EPHB2, sequence (P29323 whole entry, looked up): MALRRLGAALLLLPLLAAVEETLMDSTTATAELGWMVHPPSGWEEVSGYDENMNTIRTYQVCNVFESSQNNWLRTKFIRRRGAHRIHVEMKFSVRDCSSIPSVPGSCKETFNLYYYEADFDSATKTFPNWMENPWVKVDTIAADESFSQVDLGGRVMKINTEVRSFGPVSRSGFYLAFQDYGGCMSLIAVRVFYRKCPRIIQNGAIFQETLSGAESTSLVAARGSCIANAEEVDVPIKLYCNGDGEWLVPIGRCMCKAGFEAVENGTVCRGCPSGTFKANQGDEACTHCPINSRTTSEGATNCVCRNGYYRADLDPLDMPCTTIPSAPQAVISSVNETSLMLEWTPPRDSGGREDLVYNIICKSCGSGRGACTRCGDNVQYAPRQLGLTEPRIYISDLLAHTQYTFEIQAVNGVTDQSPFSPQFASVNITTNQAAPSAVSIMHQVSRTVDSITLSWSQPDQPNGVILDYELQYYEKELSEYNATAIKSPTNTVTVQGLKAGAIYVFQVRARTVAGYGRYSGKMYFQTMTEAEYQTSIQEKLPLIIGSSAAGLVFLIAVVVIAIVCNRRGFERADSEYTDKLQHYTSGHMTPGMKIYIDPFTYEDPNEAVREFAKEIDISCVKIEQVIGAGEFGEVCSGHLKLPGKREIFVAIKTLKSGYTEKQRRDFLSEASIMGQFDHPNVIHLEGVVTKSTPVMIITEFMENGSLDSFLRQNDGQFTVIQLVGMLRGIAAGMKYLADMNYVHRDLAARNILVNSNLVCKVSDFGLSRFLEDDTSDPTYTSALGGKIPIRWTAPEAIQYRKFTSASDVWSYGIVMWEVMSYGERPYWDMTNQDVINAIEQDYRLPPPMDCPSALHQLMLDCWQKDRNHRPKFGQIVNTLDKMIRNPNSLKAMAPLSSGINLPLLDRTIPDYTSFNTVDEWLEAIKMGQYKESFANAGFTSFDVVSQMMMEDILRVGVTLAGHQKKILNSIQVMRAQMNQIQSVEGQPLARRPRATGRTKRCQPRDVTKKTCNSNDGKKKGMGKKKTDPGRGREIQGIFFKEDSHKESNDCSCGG

Jak2 = Jak2 (UniProt O60674); experiment: as above
EPHB1 = EPHB1 (UniProt P54762); experiment: as above
EPHB1, sequence (P54762 whole entry, looked up): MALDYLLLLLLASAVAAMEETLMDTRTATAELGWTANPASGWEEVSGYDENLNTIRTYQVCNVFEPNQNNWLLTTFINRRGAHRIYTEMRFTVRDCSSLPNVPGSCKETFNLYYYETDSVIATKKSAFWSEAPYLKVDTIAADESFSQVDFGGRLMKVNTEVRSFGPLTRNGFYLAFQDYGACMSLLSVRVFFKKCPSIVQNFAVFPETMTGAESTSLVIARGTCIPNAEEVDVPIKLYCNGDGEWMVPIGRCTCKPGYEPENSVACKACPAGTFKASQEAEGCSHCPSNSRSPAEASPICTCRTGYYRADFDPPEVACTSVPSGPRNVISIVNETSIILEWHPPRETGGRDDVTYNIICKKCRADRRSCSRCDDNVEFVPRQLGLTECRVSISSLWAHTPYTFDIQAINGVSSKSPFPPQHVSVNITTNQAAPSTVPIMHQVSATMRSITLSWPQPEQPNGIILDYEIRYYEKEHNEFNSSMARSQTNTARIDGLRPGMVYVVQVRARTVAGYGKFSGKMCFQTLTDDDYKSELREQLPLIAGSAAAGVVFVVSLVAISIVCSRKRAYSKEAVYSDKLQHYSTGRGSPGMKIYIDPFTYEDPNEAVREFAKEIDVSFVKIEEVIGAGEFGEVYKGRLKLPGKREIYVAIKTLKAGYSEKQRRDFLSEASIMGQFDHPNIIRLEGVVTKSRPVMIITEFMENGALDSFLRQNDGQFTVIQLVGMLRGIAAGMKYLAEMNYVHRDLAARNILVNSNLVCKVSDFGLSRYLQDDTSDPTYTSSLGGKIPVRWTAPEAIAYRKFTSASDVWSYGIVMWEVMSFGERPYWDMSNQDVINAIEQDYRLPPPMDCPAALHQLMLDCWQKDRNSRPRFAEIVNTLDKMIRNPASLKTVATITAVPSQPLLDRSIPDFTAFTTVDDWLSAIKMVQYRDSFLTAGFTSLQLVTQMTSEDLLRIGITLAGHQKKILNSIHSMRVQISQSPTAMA

Fer (mouse) = experiment: as above
Fes = Fes (UniProt P07332); experiment: as above
MERTK = MERTK (UniProt Q12866); experiment: as above
MERTK, sequence (Q12866 whole entry, looked up): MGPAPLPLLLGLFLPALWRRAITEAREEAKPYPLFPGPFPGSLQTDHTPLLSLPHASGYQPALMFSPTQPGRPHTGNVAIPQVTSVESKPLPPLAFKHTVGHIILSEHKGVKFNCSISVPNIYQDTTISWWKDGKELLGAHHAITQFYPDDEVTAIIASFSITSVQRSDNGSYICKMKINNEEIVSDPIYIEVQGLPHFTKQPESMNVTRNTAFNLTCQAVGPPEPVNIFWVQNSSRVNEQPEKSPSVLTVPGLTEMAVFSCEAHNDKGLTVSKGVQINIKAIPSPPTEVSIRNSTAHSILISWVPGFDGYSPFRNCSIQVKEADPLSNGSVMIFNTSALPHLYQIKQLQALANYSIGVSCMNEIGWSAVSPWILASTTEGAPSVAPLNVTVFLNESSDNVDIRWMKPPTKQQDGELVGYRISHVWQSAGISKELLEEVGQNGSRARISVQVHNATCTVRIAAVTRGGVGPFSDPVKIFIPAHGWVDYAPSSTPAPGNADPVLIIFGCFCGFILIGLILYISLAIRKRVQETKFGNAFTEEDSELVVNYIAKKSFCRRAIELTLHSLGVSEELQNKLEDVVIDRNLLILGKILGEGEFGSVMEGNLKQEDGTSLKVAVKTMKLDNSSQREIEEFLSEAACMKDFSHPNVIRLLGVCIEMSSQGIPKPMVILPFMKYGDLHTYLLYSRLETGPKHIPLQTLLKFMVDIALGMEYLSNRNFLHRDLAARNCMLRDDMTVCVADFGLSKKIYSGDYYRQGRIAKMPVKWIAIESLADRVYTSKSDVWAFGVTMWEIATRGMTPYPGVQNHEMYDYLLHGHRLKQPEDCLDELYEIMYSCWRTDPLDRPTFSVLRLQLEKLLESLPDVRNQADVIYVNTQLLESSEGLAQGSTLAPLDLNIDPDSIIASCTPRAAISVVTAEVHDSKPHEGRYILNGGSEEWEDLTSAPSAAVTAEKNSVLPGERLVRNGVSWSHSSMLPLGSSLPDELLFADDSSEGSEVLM

FGFR1 = FGFR1 (UniProt P11362); experiment: as above
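Throughout, for SH2 binding enrichment of the phosphorylated peptide, bacterial display: peptide library displayed on the E. coli surface as eCPX fusions, selected cells deep-sequenced, score is each peptide's frequency after selection divided by its frequency in the input.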
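Throughout, for phosphorylation enrichment, bacterial display: 11-residue human phosphosite peptides and single-mutation variants displayed on the E. coli surface, counted by deep sequencing, each peptide's frequency after selection divided by its frequency in the unselected input library; frequency after pTyr selection over input frequency; kinase dosed for 20-30% of maximal phosphorylation in three min.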

FGFR3, sequence (P22607 whole entry, looked up): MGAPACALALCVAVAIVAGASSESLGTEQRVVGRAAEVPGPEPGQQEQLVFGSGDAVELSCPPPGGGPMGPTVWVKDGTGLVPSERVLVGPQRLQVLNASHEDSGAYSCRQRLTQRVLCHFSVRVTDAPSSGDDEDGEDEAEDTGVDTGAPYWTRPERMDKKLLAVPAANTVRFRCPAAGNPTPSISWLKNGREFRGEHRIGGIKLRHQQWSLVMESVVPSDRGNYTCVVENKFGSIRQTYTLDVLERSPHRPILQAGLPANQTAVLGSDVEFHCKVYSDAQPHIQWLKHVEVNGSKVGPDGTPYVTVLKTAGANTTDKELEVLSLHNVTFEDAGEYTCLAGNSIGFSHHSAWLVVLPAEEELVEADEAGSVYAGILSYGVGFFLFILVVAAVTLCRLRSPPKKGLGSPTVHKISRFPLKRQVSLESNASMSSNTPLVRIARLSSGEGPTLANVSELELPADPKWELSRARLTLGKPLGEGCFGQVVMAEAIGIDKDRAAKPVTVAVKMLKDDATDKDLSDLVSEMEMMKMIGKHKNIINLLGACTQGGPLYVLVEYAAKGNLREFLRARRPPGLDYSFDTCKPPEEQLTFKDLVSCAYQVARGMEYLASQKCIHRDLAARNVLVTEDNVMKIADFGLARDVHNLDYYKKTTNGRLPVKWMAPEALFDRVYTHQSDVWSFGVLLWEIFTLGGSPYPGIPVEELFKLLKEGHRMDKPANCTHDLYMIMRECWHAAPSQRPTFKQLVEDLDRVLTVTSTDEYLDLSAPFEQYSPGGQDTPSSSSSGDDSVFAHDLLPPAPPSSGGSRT

Sequence | SH2 binding enrichment (SHP2-C SH2) | SH2 binding enrichment (Grb2 SH2) | SH2 binding enrichment (c-Src SH2) | phosphorylation enrichment (FGFR3) | phosphorylation enrichment (c-Abl (mouse)) | phosphorylation enrichment (c-Src) | phosphorylation enrichment (AncSZ) | phosphorylation enrichment (Fyn) | phosphorylation enrichment (Hck) | phosphorylation enrichment (EPHB2) | phosphorylation enrichment (Jak2) | phosphorylation enrichment (EPHB1) | phosphorylation enrichment (Fer (mouse)) | phosphorylation enrichment (Fes) | phosphorylation enrichment (MERTK) | phosphorylation enrichment (FGFR1)
PVDGEYFTLQI [TP53_Y327_L323V] | 0.744 | 0.785 | 0.512 | 9.07 | 1.38 | 3.58 | 4.07 | 4.09 | 2.38 | 1.36 | 3.14 | 1.16 | 1.31 | 1.86 | 0.623 | 11.4
GCCSWYRGWAP [TIMP3_Y195_Y191C] | 1.14 | 1.56 | 1.24 | 0.966 | 0.59 | 3.1 | 0.944 | 0.651 | 0.784 | 0.565 | 0.705 | 0.563 | 3.84 | 0.967 | 0.459 | 1.38
PANMVYSTVEI [SLAMF7_Y304_T302M] | 0.546 | 0.699 | 0.833 | 2.26 | 6.82 | 8.24 | 1.38 | 10.6 | 9.3 | 3.32 | 0.659 | 3.27 | 20.3 | 1.77 | 8.74 | 2.6
PEVRRCVLPLN [RPE65_Y368_Y368C] | 0.633 | 0.926 | 0.548 | 0.774 | 0.871 | 0.586 | 0.906 | 0.366 | 0.48 | 0.487 | 0.927 | 0.673 | 0.644 | 1.14 | 0.458 | 0.495
ETKENYGKTLK [CHL1_Y291] | 0.562 | 1.16 | 0.664 | 0.508 | 0.414 | 0.433 | 0.526 | 0.61 | 0.498 | 0.297 | 0.504 | 0.348 | 0.351 | 0.541 | 0.383 | 0.325
DDSNPYINVKL [MTHFD1_Y52_L51P] | 0.811 | 1.32 | 0.701 | 0.884 | 0.846 | 0.59 | 1.45 | 0.645 | 0.606 | 0.614 | 1.16 | 0.551 | 1.2 | 1.66 | 0.526 | 0.631
SDPIIYTLENV [ADGRE1_Y534_I539V] | 0.682 | 0.88 | 0.554 | 0.663 | 0.723 | 4.92 | 1.1 | 7 | 1.61 | 0.576 | 0.945 | 0.5 | 5.1 | 1.38 | 1.09 | 0.577
PMFTKYGNSLL [RPGRIP1L_Y196] | 0.679 | 0.952 | 0.749 | 0.912 | 1.49 | 0.951 | 1.45 | 0.558 | 0.636 | 0.643 | 1.44 | 1.07 | 1.44 | 1.73 | 0.708 | 0.645
DGTGHYLCNAC [GATA5_Y208] | 0.658 | 0.83 | 0.45 | 0.416 | 0.595 | 0.421 | 0.625 | 0.396 | 0.45 | 0.445 | 0.681 | 0.61 | 0.458 | 0.763 | 0.398 | 0.456
IVAREYFSDAD [CAMK2A_Y106_E109D_YF] | 0.589 | 0.8 | 0.467 | 0.583 | 0.8 | 0.438 | 0.744 | 0.378 | 0.415 | 0.491 | 0.793 | 0.48 | 0.418 | 0.922 | 0.378 | 0.461
PTTKTYFPQFD [HBA1_Y43_H46Q] | 1.11 | 0.772 | 0.59 | 0.636 | 0.597 | 0.74 | 0.83 | 0.617 | 0.611 | 0.58 | 0.737 | 0.672 | 0.499 | 0.922 | 0.428 | 0.576
SLIDGYYRLTE [JAK2_Y372_A377E] | 1.21 | 0.843 | 2.49 | 0.997 | 0.533 | 0.639 | 1.17 | 0.427 | 0.583 | 0.531 | 5.79 | 0.521 | 0.425 | 1.1 | 0.441 | 1.11

Now from value to sequence, other results behind:

SH2 binding enrichment (SHP2-C SH2) | SH2 binding enrichment (Grb2 SH2) | SH2 binding enrichment (c-Src SH2) | Sequence | phosphorylation enrichment (FGFR3) | phosphorylation enrichment (c-Abl (mouse)) | phosphorylation enrichment (c-Src) | phosphorylation enrichment (AncSZ) | phosphorylation enrichment (Fyn) | phosphorylation enrichment (Hck) | phosphorylation enrichment (EPHB2) | phosphorylation enrichment (Jak2) | phosphorylation enrichment (EPHB1) | phosphorylation enrichment (Fer (mouse)) | phosphorylation enrichment (Fes) | phosphorylation enrichment (MERTK) | phosphorylation enrichment (FGFR1)
1.3 | 0.893 | 0.697 | RSFLSYFTSHV [NEFL_Y442_P440L_YF] | 1 | 1.05 | 0.879 | 1.54 | 0.642 | 0.915 | 0.743 | 1.1 | 0.759 | 0.677 | 1.8 | 0.826 | 0.752
0.832 | 0.788 | 0.405 | GFQPEYGQPAG [SYP_Y278_D277E_YF] | 0.917 | 0.586 | 0.671 | 0.685 | 0.592 | 0.4 | 0.542 | 0.723 | 0.501 | 0.506 | 0.741 | 0.424 | 0.479
1.09 | 1.29 | 0.565 | WAMLAYNRSKL [WWOX_Y293] | 0.611 | 0.541 | 0.266 | 1.25 | 0.347 | 0.435 | 0.417 | 1.02 | 0.453 | 0.525 | 1.04 | 0.37 | 0.431
0.461 | 0.716 | 0.37 | KLIETYFSKNY [PLP1_Y50] | 0.453 | 0.574 | 0.41 | 0.701 | 0.355 | 0.52 | 0.329 | 0.719 | 0.371 | 0.285 | 0.732 | 0.374 | 0.334
0.654 | 0.703 | 0.45 | ETAENYLGFTA [HSPA9_Y181_H184Y_YF] | 0.807 | 0.879 | 0.569 | 1.17 | 0.505 | 0.53 | 0.633 | 0.855 | 0.743 | 0.486 | 1.1 | 0.514 | 0.578

From the supplement of paper PMC10065799, “High-throughput profiling of sequence recognition by tyrosine kinases and SH2 domains using bacterial peptide display” (eLife, 2023)
